The text below walks through data of patent US20200347144A1.

Assay [1] addresses monkey 4-1BB-his protein (monkey). Briefly: ELISA, coated monkey 4-1BB-his; Ab 10 ug/ml.
Assay [2] has the same target. Briefly: ELISA, coated monkey 4-1BB-his; Ab 0.0006 ug/ml.
Assay [3] has the same target. In words: ELISA, coated monkey 4-1BB-his; Ab 0.0032 ug/ml. (An ELISA detects its analyte on a solid surface through an enzyme-linked reagent.)
The target in assay [4] is hFc-tagged human 4-1BB extracellular domain protein (4-1BB-hFc) (human) (UniProt Q07011). Briefly: ELISA, coated 4-1BB; Ab concentration not given.
Sequence of hFc-tagged human 4-1BB extracellular domain protein (4-1BB-hFc) (human) (Q07011 24-186 limits assumed): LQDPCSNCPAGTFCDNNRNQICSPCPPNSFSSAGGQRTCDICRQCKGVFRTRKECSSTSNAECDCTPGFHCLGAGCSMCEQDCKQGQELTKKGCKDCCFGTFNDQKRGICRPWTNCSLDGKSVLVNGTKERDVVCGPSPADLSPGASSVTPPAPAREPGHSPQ
The next assay concerns the target OX40. Briefly: ELISA, coated OX40; Ab concentration not given.
Assay [5] has as its target monkey 4-1BB-his protein (monkey). In words: ELISA, coated monkey 4-1BB-his; Ab 0.016 ug/ml.
Assay [6] shares this target. In words: ELISA, coated monkey 4-1BB-his; Ab 0.08 ug/ml.
The target is the same in assay [7]. Briefly: ELISA, coated monkey 4-1BB-his; Ab 0.4 ug/ml.
For another assay, the target named is GITR. Briefly: ELISA, coated GITR; Ab concentration not given.
Sequence of GITR (Q9Y5U5 26-162): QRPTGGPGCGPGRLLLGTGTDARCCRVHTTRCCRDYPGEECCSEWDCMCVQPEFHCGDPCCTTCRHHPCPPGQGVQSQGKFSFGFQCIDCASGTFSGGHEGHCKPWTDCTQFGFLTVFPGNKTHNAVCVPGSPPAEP
In assay [8] the target is monkey 4-1BB-his protein (monkey). Briefly: ELISA, coated monkey 4-1BB-his; Ab 2 ug/ml.
For assay [9] the target is unchanged. In words: ELISA, coated monkey 4-1BB-his; Ab 0.0001 ug/ml.

Sequence of OX40 (P43489 29-214): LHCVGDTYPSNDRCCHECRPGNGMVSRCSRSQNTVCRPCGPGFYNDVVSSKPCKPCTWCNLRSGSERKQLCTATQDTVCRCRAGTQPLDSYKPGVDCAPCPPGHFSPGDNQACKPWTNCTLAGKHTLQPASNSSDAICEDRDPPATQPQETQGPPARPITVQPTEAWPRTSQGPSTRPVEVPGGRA

Turning to IgG control (human IgG) (antibody), the OD450 nm amounted to 0.07 OD450 nm in assay [1]; 0.07 OD450 nm in assay [2]; 0.07 OD450 nm in [3]; 0.36 OD450 nm in assay [4]; 0.32 OD450 nm with OX40; 0.07 OD450 nm in assay [5]. Also, the OD450 nm was 0.07 OD450 nm in assay [6]; 0.07 OD450 nm in assay [7]; 0.24 OD450 nm with GITR; 0.07 OD450 nm in assay [8]; 0.07 OD450 nm in [9].
